Laboratory results published in patent EP4552657A1, “RADIOPHARMACEUTICAL COMPLEXES AND COMBINATIONS” (priority 2023, dated 2025).

T1: human recombinant DLL3 antigen (Homo sapiens, UniProt Q9NYJ7)
T1 sequence (Q9NYJ7 27-618): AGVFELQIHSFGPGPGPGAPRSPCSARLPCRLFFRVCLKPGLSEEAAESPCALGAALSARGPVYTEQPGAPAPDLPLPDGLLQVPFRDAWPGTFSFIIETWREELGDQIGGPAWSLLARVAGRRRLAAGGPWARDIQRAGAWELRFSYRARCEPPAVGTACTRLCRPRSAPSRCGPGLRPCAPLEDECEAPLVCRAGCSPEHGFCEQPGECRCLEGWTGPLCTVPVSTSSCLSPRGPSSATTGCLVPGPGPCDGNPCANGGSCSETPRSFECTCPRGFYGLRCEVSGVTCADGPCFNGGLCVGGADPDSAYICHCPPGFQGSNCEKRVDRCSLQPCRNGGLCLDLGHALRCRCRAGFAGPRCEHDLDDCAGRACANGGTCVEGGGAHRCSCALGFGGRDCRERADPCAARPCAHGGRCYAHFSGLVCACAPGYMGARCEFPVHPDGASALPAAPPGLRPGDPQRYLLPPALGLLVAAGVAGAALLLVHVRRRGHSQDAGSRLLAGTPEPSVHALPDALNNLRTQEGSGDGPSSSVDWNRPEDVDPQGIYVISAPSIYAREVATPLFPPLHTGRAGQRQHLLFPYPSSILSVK

T2: recombinant human DLL3 (Homo sapiens, UniProt Q9NYJ7)
T2 sequence (Q9NYJ7 27-618): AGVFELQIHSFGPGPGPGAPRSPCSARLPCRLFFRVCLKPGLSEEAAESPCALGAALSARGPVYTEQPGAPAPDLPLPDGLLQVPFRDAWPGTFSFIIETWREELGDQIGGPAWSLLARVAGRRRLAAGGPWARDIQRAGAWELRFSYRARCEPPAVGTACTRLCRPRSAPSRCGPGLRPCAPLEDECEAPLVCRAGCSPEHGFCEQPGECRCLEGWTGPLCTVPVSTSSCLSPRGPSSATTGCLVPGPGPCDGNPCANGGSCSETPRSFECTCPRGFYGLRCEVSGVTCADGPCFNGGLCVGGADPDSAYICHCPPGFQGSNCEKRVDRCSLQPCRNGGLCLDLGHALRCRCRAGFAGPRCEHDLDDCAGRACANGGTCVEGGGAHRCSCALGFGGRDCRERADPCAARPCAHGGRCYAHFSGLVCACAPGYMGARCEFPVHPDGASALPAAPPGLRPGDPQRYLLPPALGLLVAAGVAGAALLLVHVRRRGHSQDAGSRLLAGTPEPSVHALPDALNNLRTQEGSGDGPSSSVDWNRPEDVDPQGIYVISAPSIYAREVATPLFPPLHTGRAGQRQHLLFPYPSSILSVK

B1: Rovalpituzumab-DOTA (conjugate, chains of the INN, looked up)
VH: QVQLVQSGAEVKKPGASVKVSCKASGYTFTNYGMNWVRQAPGQGLEWMGWINTYTGEPTYADDFKGRVTMTTDTSTSTAYMELRSLRSDDTAVYYCARIGDSSPSDYWGQGTLVTVSS
VL: EIVMTQSPATLSVSPGERATLSCKASQSVSNDVVWYQQKPGQAPRLLIYYASNRYTGIPARFSGSGSGTEFTLTISSLQSEDFAVYYCQQDYTSPWTFGQGTKLEIK
modifications: DOTA chelator conjugate
B2: Ac-225-macropa-Rovalpituzumab (conjugate, chains of the INN, looked up)
VH: QVQLVQSGAEVKKPGASVKVSCKASGYTFTNYGMNWVRQAPGQGLEWMGWINTYTGEPTYADDFKGRVTMTTDTSTSTAYMELRSLRSDDTAVYYCARIGDSSPSDYWGQGTLVTVSS
VL: EIVMTQSPATLSVSPGERATLSCKASQSVSNDVVWYQQKPGQAPRLLIYYASNRYTGIPARFSGSGSGTEFTLTISSLQSEDFAVYYCQQDYTSPWTFGQGTKLEIK
modifications: macropa chelator, actinium-225

Experiments:
[1] = biological target: T1, human recombinant DLL3 antigen; experiment: ELISA, binding potency to human recombinant DLL3 antigen; settings: compared to unconjugated Rovalpituzumab
Method: The relevant antigen was immobilized on ELISA plate by absorption. The plate was washed (PBS with 0.1% Tween 20) and incubated with blocking buffer (PBS + 3% BSA) for 2 h ± 1 h to reduce unspecific binding. Relevant antibodies and ACCs diluted in assay buffer (PBS with 0.05% Tween 20 + 1.5% BSA). The blocking buffer was discarded, and the antibodies and ACCs and controls were applied in triplicates to the plate according to a plate set-up defined in each protocol. After incubation for 1 h ± 30 min at RT, the plate was washed. A horse radish peroxidase (HRP)-conjugated secondary antibody binding specifically to the primary mAb (anti-human IgG-HRP) was added to the plate. After incubation for 1 hour ± 30 min at RT, the plate was washed. A chromogenic substrate (2,2'-azino-bis (3-ethylbenzothiazoline-6-sulphonic acid) (ABTS)), for HRP leading to the formation of a green color was added to the plate and used for detection. The absorbance of the colored reaction product was measured with an absorbance plate reader, e.g. EnVision 2103 Multilabel Reader from Perkin Elmer, or iMark Microplate Absorbance Reader from Bio-Rad.
Absorbance against the log of the antibody concentration was plotted on the GraphPad Prism software.
The binding potency of Rovalpituzumab-macropa, Rovalpituzumab-DOTA was compared to unconjugated Rovalpituzumab by using an ELISA assay. […]

[2] = biological target: T2, recombinant human DLL3; experiment: Immunoreactive fraction (IRF), binding to DLL3-coated beads; settings: 20 kBq/µg
Method: Shortly after completion of the radiolabeling, the binding was assessed by measuring the fraction of radiolabeled antibody-chelator conjugate bound to relevant antigen coated magnetic beads (Thermo Fisher Scientific). In short, beads were placed in 2 mL Eppendorf tubes in 90 µL buffer (PBS/0.1% Tween 20/1% BSA). The radiolabeled compounds were diluted to 5 Bq/µL in buffer and 50 Bq were added to each bead-containing tube. The binding lasted for 60 min while shaking at 750 rpm at room temperature. After completion of the binding step, magnet (DynaMag-2) was used to separate the beads from […] supernatant. The radio activities in the supernatant and in the beads of each sample were measured using a high purity Germanium detector (Ortec). […] Total binding was defined as [(activity in beads […])/ (total activity)] × 100.

Row | Molecule | EC50 [1] | max absorbance value [1] | amount of DLL3-coated beads at which the maximum binding was achieved [2] [µg] | maximum binding (IRF) ([2]; 10 µg of DLL3-coated beads) [%]
1 | B1 | increased EC50 | Slightly lower max absorbance value |  | 
2 | B2 |  |  | 10 | 86
